Results: the DeepSol protein solubility set

Test: soluble on expression in E. coli; label from the status in PepcDB or PDB records

Row | Sequence | soluble on expression in E. coli
1 | MPCQSKKNPSEVHISSGRDLVQRTFVFSNTTGKDFLLKLITSSEAISFPTNIFRFPPSSHRVIQFRVNSSKLSHWDKLNMSIKGYVMPIYAKNLKQFIDQKSTAGTQDQEAFSLAVKFTDQYSAPQVLINLPGSATCIESMDHPVGIEELDTITAVNIEKDALTAAPIGNLMGFVEEYKRRNTNKGGCWLSNYICGGEEEQKEKKSIRGASRRSSRSSKKSAKSAGSSSCRSQSRKKNKKSQVNVCLEATPCGGSTIQA | not soluble
2 | MNNIPVEIRLLKNRTVLVLTYGDEPKNLPAEFLRVYSPSAEVRGHGVGQDVLQTGKADVQIADLQPVGQYALKISFSDGHDSGLYDWAYLHRLAYGYDAMWQEYLDKLAAAGASRFEEK | not soluble
3 | MSLAKKKEIKLEDALWKSADKLRKNIDAAEYKHIVLGLIFLRYISDSFMQKYEELLKEQDDGADPEDADEYLADNIFFVPEKSRYNYIRDNAKNPKIGKMLDEAMDEIEKHNDTLKGVLPKVYAKDNLDSKCLGELIDLIGNIAFDTGKSTDVLGHVFEYFLGEFALAEGKQGGQFYTPKCVVELLVTMLEPYKGRVFDPCCGSGGMFVQSEEFVKSHQGRLDDISIYGQESNQTTYKLAKMNLAIRKIESSQVIWNNEGSFLNDAHKDLKADFIIANPPFNDSDWSGELLENDGRWKYGVPPASNANYAWIQHFLYHLSPNGGVAGFVLAKGALTSNTTNEAAIRKALIEDDLIDCIVNLPAKLFLNTGIPASLWFIRRQKLPKTVKKTLFIDARDLGTRINRRNKTLNKDDINQIANIYKAWKNGTDYEDIKGFCKSVSIDEIRELSYVLTPGRYVGLADSDDEFDFDTRFNELLAKLKSQIKTEQELSEIILKNLEKIKEGHHHHHH | soluble
4 | MSLQPPFSILFVDDDEMSRNHFARAMSADYKVYVAQSADEAITVLGKHASEIAVLVTDFRMPGRDGDELLREVAHEYPQIVRILVTAYADKDMLLQTVNTGDVFRIIEKPLRTDMVREVLHLATARYTERETRQQRLLAMDETLAFLAHELNTPLATISLFARSVENDVAEQYDPERQREIGLAAKSMLNNAQYCLTLISSFWATVHKSGGQKSASGGGTRAVRATRLIATLLDTYPFVASQRDWVKVDVEGDFVVHAMPNCVALVLSSLLSNALRALDGGSAPVLRLEVVAFPEPEIRIRDNGPGIAPEVKARLLQDPVTTYAGAGGHGMGMIFCNRIMQSFGGCLRIESTVGAGTTVTMGFPGFNSRMHSADEGHHHHHH | soluble
5 | MRTEGRLVRANLPLNLPSPTMRYMTPQRFGMGGTQIGNIFAPISDEQADLVLQAAWNAGVRLYDTSPFYGFGLSEYRLGRFLRGKDPADYVISTKVGRVLTAAGGARQDHAIWKSPAPFNYRYDYTAAGARRSVEDSLQRLGLPRIDIVFIHDLSPDNTELEGGWEAAYRIARTGAMVELEKMRDEGLIKAWGFGVNTPNAVVQAMGSDDPTPDIVLLACQYSLIDHSEALRNTFPALHRKGTSVVVGTPLNDGFLGGRNRYNFSLELPAGAVEKRKRIMAVAARHGIDIHTAALQFAAAHPQVSAIIPGARSPGQVMSNVQAMKVGIPAAFWAELKSQSLMDAQAPVPS | not soluble
6 | MVPLESSTLFGVYGGFTDSMMMRETTTNNQDPSGDTCSVSDPAPGSTDYYNISSSPVKDDGTAPKNDVVCSINVDDNKDKSWLRLGIGPEENTDGSYKLQRCCSKNGSGRENSLELSLFSSSSTAVSSSIDHLPTQPLQLPYHHDQLLTMRGPSLVYNHQLMKPQTLLNRGFSFPSSKPWIPQYMAPFRPSSLSDRDVTNNNSLSRSCCVDEGGAGPSSEFRVLDPPRRPHSGLWFLLQASQFQ | soluble
7 | MFAYDRLALDLAVFNLKDVDSGNSSSSERSSPPTRIMSQAQNINDESGSSGYGSPTRTPLASPSNDIFSSVLPLQVQRAFSAQSPEEITRHFGVSPSPQAVKPVPEVQQQREQAQVSQTSAQGLAAVDGFSMAEIAGFAELLSSPKKTPPPRYQCHICYATGHHYISDCPQRFNTPYDELTPYQGRKKCYGEFTCQLCKRKWNSQNSVANEPQSCIKCHVPVFPHKQLPVEKAVTLGLIKAQNVTKVAPIGHGRPPARKHEEISRRH | not soluble
8 | MSLTHAILFDLDGTLVDHASAARAALHAWSPTVGVDTDVERWIELDKWGFARFERGETTHLGQRRDRIRAYLNRELDDATCDDIYSGYLKAYEQNWTAYPDAKGVLDRAVATGAPVGILTNGAAPMQQDKLDRTGLGLPELVMLAASTLDSAKPRPEMYARALTHLGARTATIIGDDWTNDVAAPRELGWNALYLDRSGTDPRADIHSLDELFHEGHHHHHH | soluble
9 | MTTEIKKLDPDTAIDIAYDIFLEMAGENLDPADILLFNLQFEERGGVEFVETADDWEEEIGVLIDPEEYAEVWVGLVNEQDEMDDVFAKFLISHREEDREFHVIWKK | soluble
10 | MRVRIVGAPSLLVGVISDTHDNLALARRAGEIFARERVEAVIHLGDYVAPFTLAELLGVVGGKAVFYGVFGNNDGERLGLSRVAGGFGASLLDPPATVSIGGRRLLLLHGFGSPENTVELVDALASSGRWDAVLYGHTHKARVERVGGSLVLNPGDGGGSLEKPSAAILDLESMEARLVSLEGAAALEHHHHHH | not soluble
11 | MGSDKIHHHHHHMVQAIDNTIATNFLTDAVVERHNFSQLNKTRIRFRIQLKKSTKSAAPKWADVLQAEVSEIESDLVKVTNSEVGLRGIKVFKKLDEAAAQLRQEIASVQEWMSADTGDWVCPIDLAPLVWNQLINIRDNIAPGLRNQLKADYEAGLVDYQERIDQFLSLNTWELAQDKQESVKANLLRAFPTLTDLEDYLQVVIGRPVIIPALSEQLNQQQAECLDQITKFIQQYDQNLEQRLRESALAGGEQLAAQLLEELADWEPGRKPVQFKKKMERHLMKVQVLLANADSEAGSSLEAMMTHLDSIVNDPAIESKNLGSDTRSQLQQKMQEIRIKLLDEQRNLQSLATEDVGLSKATVMSFKFR | not soluble
12 | IADVVPLDQNNRILAYQGLMRIRARHCRLGIIALAEVANRNVEQFTSSDLGFCIGPRLNAAGRLDNMSIGVELLLANEMSKARELALDLDQLNQTRKEIEAGMKLEAIKICQNLTALFKELPYGITLYQPDWHQGVLGIV | not soluble
13 | MAHHHHHHMAKVKMNPKLSSFTANAYEKKRQVGMYSKYIVDANPSGKDPSSSQTNKGNEYEEEDIVEKLRKREQSKQGGDYFMNAYKYTQPSAIIDYSSGEEQEYSQLLKKPKCPQCGVKNCVCGFMRSGGRRAR | soluble
14 | MSGGLLKALRSDSYVELSQYRDQHFRGDNEEQEKLLKKSCTLYVGNLSFYTTEEQIYELFSKSGDIKKIIMGLDKMKKTACGFCFVEYYSRADAENAMRYINGTRLDDRIIRTDWDAGFKEGRQYGRGRSGGQVRDEYRQDYDAGRGGYGKLAQNQ | soluble
15 | MSVSITFTDAAKRALASIVAQSERQLKLAFDTDGCGCLVDGVPALWLVDKADEDDVVVETNFMPVLVERSRLIFFDEAMTIDVKPGTTVFQLKSPGQTLNGHMPLVEVKSGHER | not soluble
16 | MTAQSYHPMIKEFPEFYGPLTCPGQFLALLILEFGLNFAEIQKLKWENFNWNFKYLTIEKAGIKRVLPIREKFAIRVKAINNADELFAKSRQFLYTELKKFTNYSSKEIREQYILHQVKAGKSIYELATLLGLTTITTLEKYYRLEHHHHHH | soluble
17 | MSEVNIVVNGREAGSKSKGCALCGATWGDYHADFLGEDLFFCCDICAAEFMNMMDEAFKHTARHNVDELHIDGNYQLGRNVLLKNGEDRLRFYVKFGPGAVIKEFKITD | soluble
18 | MDFDNFPIEQLSHLISFDIEWTETSVADAIKIKDIILRSPHFESASILSHCVNKIKPEVLKVFHPNYIATDRDYNEMLELRNDYFRSIVYAGGSSIDIYNVNLEDPDDFE | not soluble
19 | MWFGEFGGQYVPETLIEPLKELEKAYKRFKDDEEFNRQLNYYLKTWAGRPTPLYYAKRLTEKIGGAKIYLKREDLVHGGAHKTNNAIGQALLAKFMGKTRLIAETGAGQHGVATAMAGALLGMKVDIYMGAEDVERQKMNVFRMKLLGANVIPVNSGSRTLKDAINEALRDWVATFEYTHYLIGSVVGPHPYPTIVRDFQSVIGREAKAQILEAEGQLPDVIVACVGGGSNAMGIFYPFVNDKKVKLVGVEAGGKGLESGKHSASLNAGQVGVFHGMLSYFLQDEEGQIKPTHSIAPGLDYPGVGPEHAYLKKIQRAEYVTVTDEEALKAFHELSRTEGIIPALESAHAVAYAMKLAKEMSRDEIIIVNLSGRGDKDLDIVLKVSGNV | soluble
